# Experimental data taken from doi:10.1101/127514.
# Legend:
# [1] = molecular target: Alexa Fluor 647 maleimide-labeled LukS-K281C-Y113H (Staphylococcus aureus); test: single-molecule step-wise photobleaching
# [2] = molecular target: human C5a receptor with C-terminal mGFP, on HEK cells (human) (UniProt P21730); test: single-molecule step-wise photobleaching
# Sequence of UniProt P21730 (P21730 whole entry): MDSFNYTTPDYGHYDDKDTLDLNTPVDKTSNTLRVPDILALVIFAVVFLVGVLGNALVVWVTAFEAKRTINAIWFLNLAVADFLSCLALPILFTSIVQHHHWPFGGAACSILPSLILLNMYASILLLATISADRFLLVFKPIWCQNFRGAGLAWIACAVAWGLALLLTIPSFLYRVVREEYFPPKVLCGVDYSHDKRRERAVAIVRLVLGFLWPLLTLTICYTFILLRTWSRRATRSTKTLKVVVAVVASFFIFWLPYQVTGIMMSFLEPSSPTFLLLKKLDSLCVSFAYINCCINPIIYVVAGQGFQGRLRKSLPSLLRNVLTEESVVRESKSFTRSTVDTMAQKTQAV
substance,measurement,setting,value
Alexa Fluor 647 maleimide-labeled LukS-K281C-Y113H (natural protein),stoichiometry N,[1],3.9 molecules
same,stoichiometry N (hC5aR molecules per LukS molecule),[2],4 to 5
